Results from patent US20250066421A1.
*1 amine or outer side, *2 acyl side, *3 side chain or, on linkers, in order; H or OH if unused. Bridges are numbered along the chain shown (N, C = ends). Where no end group is shown, it is not given here. [ ]: non-standard residue; d: D form. TATA = O=C(CC[*:1])N1CN(C(=O)CC[*:2])CN(C(=O)CC[*:3])C1; 1Nal = N[C@@H](Cc1cccc2ccccc12)C(=O)O; PABC = O=C(OCc1ccc(N[*:1])cc1)[*:2]; Glutaryl = O=C(CCCC(=O)[*:2])[*:1]; Cya = N[C@@H](CS(=O)(=O)O)C(=O)O; Hyp = O=C(O)[C@@H]1C[C@@H](O)CN1; dCya = N[C@H](CS(=O)(=O)O)C(=O)O; hArg = N=C(N)NCCCC[C@H](N)C(=O)O; Cit = NC(=O)NCCC[C@H](N)C(=O)O; βAla = NCCC(=O)O; Sar = CNCC(=O)O

T1: human Nectin-4 (human), Q96NY8
T1 chain: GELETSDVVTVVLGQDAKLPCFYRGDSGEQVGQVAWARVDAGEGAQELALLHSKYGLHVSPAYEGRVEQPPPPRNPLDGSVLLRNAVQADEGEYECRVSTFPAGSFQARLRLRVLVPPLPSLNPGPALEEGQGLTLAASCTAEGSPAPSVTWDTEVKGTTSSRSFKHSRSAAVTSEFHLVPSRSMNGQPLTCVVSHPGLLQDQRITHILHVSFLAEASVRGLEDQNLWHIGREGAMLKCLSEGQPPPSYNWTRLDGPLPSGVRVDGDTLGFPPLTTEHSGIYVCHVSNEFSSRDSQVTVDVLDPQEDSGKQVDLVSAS

B1: BCY7424 (peptide)
peptide: ACPFGCMKNWAWPIWCTNK
modifications: linker 2-6-16 via TATA
B2: BCY8281: Ac-[B-Ala][Sar10]-(SEQ ID NO: 210) (peptide)
peptide: {Ac-βAla}-[Sar][Sar][Sar][Sar][Sar][Sar][Sar][Sar][Sar][Sar]CP[1Nal][dD]CM[Cya][Cya]WSTP[Hyp]WC
modifications: linker 11-15-25 via TATA
B3: BCY8280: Ac-[B-Ala][Sar10]-(SEQ ID NO: 209) (peptide)
peptide: {Ac-βAla}-[Sar][Sar][Sar][Sar][Sar][Sar][Sar][Sar][Sar][Sar]CP[1Nal][dCya]CM[hArg][Cya]WSTP[Hyp]WC
modifications: linker 11-15-25 via TATA
B4: BCY8278: Ac-[B-Ala][Sar10]-(SEQ ID NO: 177) (peptide)
peptide: {Ac-βAla}-[Sar][Sar][Sar][Sar][Sar][Sar][Sar][Sar][Sar][Sar]CP[1Nal][dD]CM[hArg][Cya]WSTP[Hyp]WC
modifications: linker 11-15-25 via TATA
B5: BCY8784: MMAE-PABC-Cit-Val-Glutaryl-BCY8273 (peptide)
peptide: {MMAE-PABC-Cit-Val-Glutaryl-βAla}-[Sar][Sar][Sar][Sar][Sar][Sar][Sar][Sar][Sar][Sar]CP[1Nal][dCya]CM[hArg][Cya]WSTP[Hyp]WC
modifications: linker 11-15-25 via TATA
B6: BCY8161: Ac-(SEQ ID NO: 177) (peptide)
peptide: Ac-CP[1Nal][dD]CM[hArg][Cya]WSTP[Hyp]WC
modifications: linker 1-5-15 via TATA

Experiments:
[1] = target: T1, human Nectin-4 (human), Q96NY8; assay: FP competition with tracer m4; conditions: remark: other sources report otherwise
[2] = target: Human Nectin-4 (residues Gly32-Ser349; NCBI RefSeq: NP_112178.2) with C-terminal FLAG tag, biotinylated (human) (UniProt Q96NY8); assay: SPR (Biacore 3000), biotinylated human Nectin-4 on streptavidin CM5 chip, peptide as analyte
[3] = target: Human Nectin-4 (residues Gly32-Ser349; NCBI RefSeq: NP_112178.2) with C-terminal FLAG tag, biotinylated (human) (UniProt Q96NY8); assay: SPR (Biacore 3000), biotinylated human Nectin-4 on streptavidin CM5 chip, drug conjugate as analyte

| Binder | Kd [2] [nM] | further results |
| --- | --- | --- |
| B1 |  | Ki [1]: 562 nM |
| B2 | 6.11 |  |
| B3 | 2 |  |
| B4 | 1.92 |  |
| B5 |  | Kd [3]: 0.662 nM |
| B6 | 0.94 |  |
